Test [1] has as its target SBP-tagged LeishIF4E-1. In words: pull-down.
The target of test [2] is SBP-tagged LeishIF4E-4. The test can be described thus: pull-down.

Consider LeishIF4A-1 (natural protein), for which the percent of the total protein in the elution fraction in test [1] was 3%; in test [2], 3.4%. Take LeishIF4G-3 (natural protein): the percent of the total protein in the elution fraction in test [2] came out at 9%.

As to “Leishmania 4E-Interacting Protein (Leish4E-IP) (natural protein)”, the percent of the total protein in the elution fraction in test [1] was 14%.

The values are drawn from paper PMC3201875.
